Test [1] has as its target T1, cyno GPRC5D (cyno, UniProt Q9NZD1 1-343 (human entry)).
T1 chain: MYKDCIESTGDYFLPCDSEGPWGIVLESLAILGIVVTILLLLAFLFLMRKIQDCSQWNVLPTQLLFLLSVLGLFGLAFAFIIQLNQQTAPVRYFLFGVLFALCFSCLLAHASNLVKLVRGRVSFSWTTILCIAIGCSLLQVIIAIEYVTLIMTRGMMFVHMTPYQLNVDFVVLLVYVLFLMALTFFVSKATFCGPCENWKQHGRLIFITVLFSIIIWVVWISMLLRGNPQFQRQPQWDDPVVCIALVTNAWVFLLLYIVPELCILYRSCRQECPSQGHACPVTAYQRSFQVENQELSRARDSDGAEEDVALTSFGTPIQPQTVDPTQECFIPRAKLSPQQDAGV
In words: cell-based or functional assay.

For test [2], the target named is T2, human GPRC5D (human, UniProt Q9NZD1 1-345).
T2 construct: on transfected HEK293/RBL cells or endogenous on myeloma cells (H929, MM1R, OPM2, LP1, JIM3, patient plasma cells); also called G protein-coupled receptor class C group 5 member D; hGPRC5D
Briefly: FACS, MM1R, H929 and human GPRC5D HEK293 cells. (In general: Flow cytometry measures light scatter and fluorescence of single cells or particles in a stream.)

Test [3] addresses T2, human GPRC5D. In words: FACS, GPRC5D+ MM1.R cells.
Experimental: The binding affinities of the GPRC5D antibodies on GPRC5D⁺ human MM cell line (MM1.R, purchased from ATCC (American Type Culture Collection)) were measured using FACS.
Binding is expressed as normalized geometrical mean fluorescence intensity as determined by FACS. Graphing and fitting of data were done in GraphPad Prism 6 using nonlinear regression with variable slope (four parameters) and least square fit method.

The EC50 is the concentration needed to bring the measured effect to its halfway point.

T2 sequence (Q9NZD1 whole entry): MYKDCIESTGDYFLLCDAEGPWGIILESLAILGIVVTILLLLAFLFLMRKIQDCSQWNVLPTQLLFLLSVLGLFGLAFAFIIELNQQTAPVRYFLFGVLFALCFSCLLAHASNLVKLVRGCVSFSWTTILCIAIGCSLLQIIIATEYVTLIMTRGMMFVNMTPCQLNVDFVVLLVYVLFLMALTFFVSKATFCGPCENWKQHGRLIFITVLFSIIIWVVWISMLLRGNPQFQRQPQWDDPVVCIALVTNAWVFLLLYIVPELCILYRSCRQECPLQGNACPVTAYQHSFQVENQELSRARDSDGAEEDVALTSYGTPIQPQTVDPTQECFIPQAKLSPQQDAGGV

B1: GCDB45 (bispecific antibody, IgG4, V domains shown)
VH 1: EVQLVQSGAEVKKPGESLKISCKGSGYSFTSYWIGWVRQMPGKGLEWMGIIYPGDSDTRYSPSFQGQVTISADKSISTAYLQWSSLKASDTAMYYCARIGFYGRSFRIFDYWGQGTLVTVSS
VL 1: EIVLTQSPATLSLSPGERATLSCRASQSVSSYLAWYQQKPGQAPRLLIYDASNRATGIPARFSGSGSGTDFTLTISSLEPEDFAVYYCQQRSNWPLTFGQGTKVEIK
VH 2: EVQLVESGGGLVQPGGSLRLSCAASGFTFNTYAMNWVRQAPGKGLEWVARIRSKYNNYATYYAASVKGRFTISRDDSKNSLYLQMNSLKTEDTAVYYCARHGNFGNSYVSWFAYWGQGTLVTVSS
VL 2: QTVVTQEPSLTVSPGGTVTLTCRSSTGAVTTSNYANWVQQKPGQAPRGLIGGTNKRAPGTPARFSGSLLGGKAALTLSGVQPEDEAEYYCALWYSNLWVFGGGTKLTVL
notes: IgG4-PAA bispecific; also called GC5B332 x CD3B219
As to B1, the “T cell mediated target cell killing, Cyno GPRC5D EC50” value in test [1] was 2.82 nM. Besides, in test [2], the binding result is reported as “binds”.

B2: GC5B602 (antibody, IgG1, V domains shown)
VH: QVQLVQSGAEVKKPGASVKVSCKASGYSFTGYTMNWVRQAPGQGLEWMGLINPYNGDTNYAQKLQGRVTMTTDTSTSTAYMELRSLRSDDTAVYYCARVALRVALDYWGQGTLVTVSS
VL: DIQMTQSPSSLSASVGDRVTITCKASQNVATHVGWYQQKPGKAPKRLIYSASYRYSGVPSRFSGSGSGTEFTLTISNLQPEDFATYYCQQYNRYPYTFGQGTKLEIK
notes: IgG1 form of GC5B515
B2 returned a concentration for a half-maximal effect (EC50) in test [3] of 135 nM.
